In paper PMC11372557:

Key:
[1] = target: RbdA-DGC-PDE (RbdA 376-797), linked cyclase-phosphodiesterase double domain of RbdA (Pseudomonas aeruginosa strain PAO1); assay: SEC; apparent molecular weight on a calibrated size exclusion system; purified proteins in solution
[2] = target: RbdA-PDE (RbdA 549-797), phosphodiesterase domain of the regulator of biofilm dispersal RbdA (Pseudomonas aeruginosa strain PAO1); assay: as above

Substance	stoichiometry N [1]	stoichiometry N [2]
RbdA-DGC-PDE (RbdA 376-797), linked cyclase-phosphodiesterase double domain of RbdA (domain or fragment)	2	
RbdA-PDE (RbdA 549-797), phosphodiesterase domain of the regulator of biofilm dispersal RbdA (domain or fragment)		2
